B1: Class 1 ligand 4 (ssRNA)
RNA: GGGAGACAAGAAUAAACGCUCAAUUUGGAAGAUCCCGGAGUCUCGUUGGUGUUGAACGAUUCUUCGACAGGAGGCUCACAACAGGC
modifications: 2'-F all pyrimidines
B2: Class 1 ligand 11 (ssRNA)
RNA: GGGAGACAAGAAUAAACGCUCAAUUUAGAAGAUCCCGGAGUCUCGUUGGUCGUUGAACGAUCCUUCGACAGGAGGCUCACAACAGGC
modifications: 2'-F all pyrimidines
B3: Class 1 ligand 10 (ssRNA)
RNA: GGGAGACAAGAAUAAACGCUCAAUUCGGAAGAUCACGGAGUCUCGUUGGUCGUUGAACGAUCCUUCGACAGGAGGCUCACAACAGGC
modifications: 2'-F all pyrimidines
B4: Class 1 ligand 49 (ssRNA)
RNA: GGGAGACAAGAAUAAACGCUCAAUUUGGAAGAUCCCGAGAUCUCGUUGGUCGUUGAACGAUCCUUCGACAGGAGGCUCACAACAGGC
modifications: 2'-F all pyrimidines
B5: 2nd generation ligand 83 (ssRNA)
RNA: GGGAGGACGAUGCGGUUUGAUGAGGUAGUUGAACGAUCCUUCCAUCCGUUAGACCAGACGACUCGCCCGA
modifications: 2'-F all pyrimidines
B6: 2nd generation ligand 86 (ssRNA)
RNA: GGGAGGACGAUGCGGUUCAACAACGUACUUGAACGAUCCUUGUGCUCGUUGAUCCAGACGACUCGCCCGA
modifications: 2'-F all pyrimidines
B7: 2nd generation ligand 88 (ssRNA)
RNA: GGGAGGACGAUGCGGUUCGUUACGAUAAUUGAACGAUCCUUUUAUCUUUCAGUCCAGACGACUCGCCCGA
modifications: 2'-F all pyrimidines
B8: 2nd generation ligand 89 (ssRNA)
RNA: GGGAGGACGAUGCGGUGCAUGAUUUAGUUGAACGAUCCUUCCAACUUCCAGCACAGACGACUCGCCCGA
modifications: 2'-F all pyrimidines
B9: 2nd generation ligand 91 (ssRNA)
RNA: GGGAGGACGAUGCGGUUCAUUUUUGUGUUGAACGAUCCUUCACUAACCUACCACAGACGACUCGCCCGA
modifications: 2'-F all pyrimidines
B10: 2nd generation ligand 93 (ssRNA)
RNA: GGGAGGACGAUGCGGUUCUAGGUCGAAAUUGAACGAUCCUUUUUCGCUAUGGAUCAGACGACUCGCCCGA
modifications: 2'-F all pyrimidines
B11: 2nd generation ligand 98 (ssRNA)
RNA: GGGAGGACGAUGCGGGUUCCAGUAUUAGUUGAACGAUCCUUCUUAUCUGGAGUCCAGACGACUCGCCCGA
modifications: 2'-F all pyrimidines
B12: 2nd generation ligand (SEQ 118) (ssRNA)
RNA: GGGAGGACGAUGCGGGUUCGACAUAAUCUUGAACGAUCCUUGAUUACUUGGUCCCAGACGACUCGCCCGA
modifications: 2'-F all pyrimidines
B13: 2nd generation ligand 9 (ssRNA)
RNA: GGGAGGACGAUGCGGUUCUACACGAUAUUUGAACGAUCCUUGUAUCUUAGGUCCCAGACGACUCGCCCGA
modifications: 2'-F all pyrimidines
B14: 2nd generation ligand 72 (ssRNA)
RNA: GGGAGGACGAUGCGGAUUCGAUGUAGUUUGAACGAUCCUUGUAUAUAUCGGAUCAGACGACUCGCCCGA
modifications: 2'-F all pyrimidines
B15: 2nd generation ligand 14 (ssRNA)
RNA: GGGAGGACGAUGCGGUUCGACACGAAAGUUGAACGAUCCUUCUAUCUGUUGGACCAGACGACUCGCCCGA
modifications: 2'-F all pyrimidines
B16: 2nd generation ligand 23 (ssRNA)
RNA: GGGAGGACGAUGCGGGUUUAAUACAAAGUUGAACGAUCCUUCUUUGCAUUGGACCAGACGACUCGCCCGA
modifications: 2'-F all pyrimidines
B17: 2nd generation ligand 69 (ssRNA)
RNA: GGGAGGACGAUGCGGGUUUCACUUCAAGUUGAACGAUCCUUCUUGGCUUGAGCACAGACGACUCGCCCGA
modifications: 2'-F all pyrimidines
B18: 2nd generation ligand 5 (ssRNA)
RNA: GGGAGGACGAUGCGGGUUUAAUCUCGGAUUGAACGAUCCUUUCUGUAAUUAGUCCAGACGACUCGCCCGA
modifications: 2'-F all pyrimidines
B19: 2nd generation ligand 10 (ssRNA)
RNA: GGGAGGACGAUGCGGAACACCAAUCUUUUUGAACGAUCCUUCGUGGGAGUGCAUCAGACGACUCGCCCGA
modifications: 2'-F all pyrimidines
B20: 2nd generation ligand 11 (ssRNA)
RNA: GGGAGGACGAUGCGGGAUUCUCUUUGAGUUGAACGAUCCUUCUCAUCGCACUUGCCAGACGACUCGCCCGA
modifications: 2'-F all pyrimidines
B21: 2nd generation ligand 19 (ssRNA)
RNA: GGGAGGACGAUGCGGUUUGACGUAUAAUUGAACGAUCCUUUUCUAGCUUAGACCAGACGACUCGCCCGA
modifications: 2'-F all pyrimidines
B22: 2nd generation ligand 20 (ssRNA)
RNA: GGGAGGACGAUGCGGUGUUCAUGCUUGAUUGAACGAUCCUUUCAUAGUGUUGGUCAGACGACUCGCCCGA
modifications: 2'-F all pyrimidines
B23: 2nd generation ligand 25 (ssRNA)
RNA: GGGAGGACGAUGCGGUUCCUGAUUCAAGUUGAACGAUCCUUCCUGCUGUACGUCCAGACGACUCGCCCGA
modifications: 2'-F all pyrimidines
B24: 2nd generation ligand 33 (ssRNA)
RNA: GGGAGGACGAUGCGGUUCGAUGGCCAUUUGAACGAUCCUUAUUAUCAACGGUCCAGACGACUCGCCCGA
modifications: 2'-F all pyrimidines
B25: 2nd generation ligand 42 (ssRNA)
RNA: GGGAGGACGAUGCGGGUUCGAAACUUCCUUGAACGAUCCUUGGAUGUUUUGCUCAGACGACUCGCCCGA
modifications: 2'-F all pyrimidines
B26: 2nd generation ligand 49 (ssRNA)
RNA: GGGAGGACGAUGCGGUUCGUCAUCGCUAUUGAACGAUCCUUUAGCUGAUGGACCAGACGACUCGCCCGA
modifications: 2'-F all pyrimidines
B27: 2nd generation ligand 52 (ssRNA)
RNA: GGGAGGACGAUGCGGGAUUUUCCGUUAAUUGAACGAUCCUUUUCACGGACUGCAGACGACUCGCCCGA
modifications: 2'-F all pyrimidines
B28: 2nd generation ligand 58 (ssRNA)
RNA: GGGAGGACGAUGCGGUCUUAAGUUUGAAUUGAACGAUCCUUUUCUUCCAGGCAACAGACGACUCGCCCGA
modifications: 2'-F all pyrimidines
B29: 2nd generation ligand 61 (ssRNA)
RNA: GGGAGGACGAUGCGGUUUAGUGUUUAGUUGAACGAUCCUUCUAACACCAGUCCCAGACGACUCGCCCGA
modifications: 2'-F all pyrimidines
B30: 2nd generation ligand 71 (ssRNA)
RNA: GGGAGGACGAUGCGGAUUCGAUUAGAGAUUGAACGAUCCUUUCAUCAGUUGGAUCAGACGACUCGCCCGA
modifications: 2'-F all pyrimidines
B31: 2nd generation ligand 73 (ssRNA)
RNA: GGGAGGACGAUGCGGGGUUUUCUAAGUGUUGAACGAUCCUUCACAUAGCGUGUCCCAGACGACUCGCCCGA
modifications: 2'-F all pyrimidines
B32: 2nd generation ligand 74 (ssRNA)
RNA: GGGAGGACGAUGCGGUAAGUUCUAACUUUUGAACGAUCCUUGGCACCCUGACUACAGACGACUCGCCCGA
modifications: 2'-F all pyrimidines

Target: T1, human chorionic gonadotropin (hCG) heterodimer (Homo sapiens, UniProt P01215;P0DN86 P01215:25-116,P0DN86:21-165)
Assay: filter
Conditions: tags: Calbiochem or Vitro Diagnostics (14,000 IU/mg); chain copies: alpha/beta heterodimer (stated); label: 32P

T1 sequence (P01215 25-116, chain 1 of 2, other chains not shown): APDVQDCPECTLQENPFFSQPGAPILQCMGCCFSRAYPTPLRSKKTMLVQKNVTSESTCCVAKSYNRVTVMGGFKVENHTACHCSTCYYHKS

Compared with B1, B2 is lower in binding signal: 4.81 % bound at 100 nM for the first, 3.09 % bound at 100 nM for the second.

Going from B3 to B4, the binding signal rises from 3.59 % bound at 100 nM to 3.77 % bound at 100 nM.

Target: T1, human chorionic gonadotropin (hCG) …
Assay: filter
Conditions: tags: Calbiochem or Vitro Diagnostics (14,000 IU/mg); chain copies: alpha/beta heterodimer (stated); label: 32P
Remark: another data set of the same source

Compared with B5, B6 is lower in binding signal: 4.48 % bound at 100 nM for the first, 0.57 % bound at 100 nM for the second.

Compared with B7, B8 is lower in binding signal: 0.32 % bound at 100 nM for the first, 0.21 % bound at 100 nM for the second.

Going from B9 to B10, the binding signal rises from 2.36 % bound at 100 nM to 7.25 % bound at 100 nM.

First: B11
Second: B12
The binding signal of the first is lower: 11.7 % bound at 100 nM for the first, 13 % bound at 100 nM for the second.

Compared with B13, B14 is lower in binding signal: 9.98 % bound at 100 nM for the first, 0.3 % bound at 100 nM for the second.

First: B15
Second: B16
The binding signal of the first is higher: 15.4 % bound at 100 nM for the first, 13 % bound at 100 nM for the second.

Going from B17 to B18, the binding signal falls from 18.8 % bound at 100 nM to 3.14 % bound at 100 nM.

Going from B19 to B20, the binding signal rises from 0 % bound at 100 nM to 10 % bound at 100 nM.

First: B21
Second: B22
The binding signal of the first is higher: 8.52 % bound at 100 nM for the first, 8.37 % bound at 100 nM for the second.

Going from B23 to B24, the binding signal rises from 0.28 % bound at 100 nM to 0.59 % bound at 100 nM.

First: B25
Second: B26
The binding signal of the first is lower: 0.54 % bound at 100 nM for the first, 14.4 % bound at 100 nM for the second.

Compared with B27, B28 is lower in binding signal: 6.01 % bound at 100 nM for the first, 0 % bound at 100 nM for the second.

Compared with B29, B30 is lower in binding signal: 15.5 % bound at 100 nM for the first, 6.99 % bound at 100 nM for the second.

Compared with B31, B32 is higher in binding signal: 0.84 % bound at 100 nM for the first, 11.5 % bound at 100 nM for the second.
